# Assay results as given in patent US20060015959.
# Target: recombinant Tau (Panvera)
protein,measurement,value
full length human transglutaminase II (protein) MAEELVLERCDLELETNGRDHHTADLCREKLVVRRGQPFWLTLHFEGRNYEASVDSLTFSVVTGPAPSQEAGTKARFPLRDAVEEGDWTATVVDQQDCTLSLQLTTPANAPIGLYRLSLEASTGYQGSSFVLGHFILLFNAWCPADAVYLDSEEERQEYVLTQQGFIYQGSAKFIKNIPWNFGQFEDGILDICLILLDVNPKFLKNAGRDCSRRSSPVYVGRVVSGMVNCNDDQGVLLGRWDNNYGDGVSPMSWIGSVDILRRWKNHGCQRVKYGQCWVFAAVACTVLRCLGIPTRVVTNYNSAHDQNSNLLIEYFRNEFGEIQGDKSEMIWNFHCWVESWMTRPDLQPGYEGWQALDPTPQEKSEGTYCCGPVPVRAIKEGDLSTKYDAPFVFAEVNADVVDWIQQDDGSVHKSINRSLIVGLKISTKSVGRDEREDITHTYKYPEGSSEEREAFTRANHLNKLAEKEETGMAMRIRVGQSMNMGSDFDVFAHITNNTAEEYVCRLLLCARTVSYNGILGPECGTKYLLNLNLEPFSEKSVPLCILYEKYRDCLTESNLIKVRALLVEPVINSYLLAERDLYLENPEIKIRILGEPKQKRKLVAEVSLQNPLPVALEGCTFTVEGAGLTEEQKTVEIPDPVEAGEEVKVRMDLLPLHMGLHKLVVNFESDKLKAVKGFRNVIIGPA,tau aggregation (high molecular weight total tau immunoreactive protein complex on western blot) in the transglutaminase activity assay,"increased, Ca2+-dependent tau aggregation when recombinant tau was added to brain lysate from mice with overexpression of hTGII"
